Reference: paper PMC10208570, “Peptidomimetic antibiotics disrupt the lipopolysaccharide transport bridge of drug-resistant Enterobacteriaceae” (Science Advances, 2023)

Molecular target: LptAm^Q62L (E. coli) (E. coli (ATCC 25922))
Assay: fluorescence polarisation; indirect (competition) assay: unlabeled peptide or protein serially diluted into a 1:1 mixture of Lpt protein and 6-FL (2x stock 70 nM); 50 mM Na-Pi pH 7, 150 mM NaCl, 0.05% Tween 20; incubated overnight at 4°C, read at 25°C; triplicates; Ki from IC50 by Cheng-Prusoff

B1: mLptA (E. coli), LptA(25-185) E39V M47A R76A (domain or fragment)
chain: GAFAVTGDTDQPIHIVSDQQSLDAQGNVVTFTGNVIVTQGTIKINADKVVVTAPGGEQGKEVIDGYGKPATFYQMQDNGKPVEGHASQMHYELAKDFVVLTGNAYLQQVDSNIKGDKITYLVKEQKMQAFSDKGKRVTTVLVPSQLQDKNNKGQTPAQKKGN
  Ki: 69 nM
